From US20110206668A1 come the findings set out here.

For this test, the target named is murine MRC OX-2 (mouse) (UniProt O54901). Briefly: FACS of 10-day cultured mouse bone marrow derived dendritic cells, anti-CD200 and PE anti-mouse IgG.
Chain of UniProt O54901 (O54901 31-278 limits assumed): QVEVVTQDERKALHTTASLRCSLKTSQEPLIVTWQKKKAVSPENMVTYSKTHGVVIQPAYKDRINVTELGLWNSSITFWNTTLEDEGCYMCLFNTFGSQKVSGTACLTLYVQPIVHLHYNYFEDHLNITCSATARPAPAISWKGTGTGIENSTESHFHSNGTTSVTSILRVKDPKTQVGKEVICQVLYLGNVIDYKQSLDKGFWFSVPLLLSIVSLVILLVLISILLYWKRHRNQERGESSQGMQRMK

The substance “mouse IgG1 anti-rat CD200 (commercial anti-rat MRC OX-2 monoclonal antibody, Cedarlane Labs)” came in with a percent stained cells of 14%.
